# T1: human dysadherin (human, UniProt Q96DB9 22-178)
# T1 chain: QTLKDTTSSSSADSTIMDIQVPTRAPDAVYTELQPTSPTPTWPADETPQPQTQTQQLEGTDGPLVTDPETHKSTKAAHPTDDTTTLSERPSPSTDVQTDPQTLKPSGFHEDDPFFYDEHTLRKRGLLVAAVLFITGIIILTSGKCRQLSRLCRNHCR
# What was measured:
# NSCLC cell line A549 [1] = experiment: In vitro cytotoxicity of M53-PEG24-CEN09-106 drug combinations; assay type: cell-based; conditions: Homo sapiens
# Procedure: The studies employed a fixed ratio of the drugs (based on the EC50 values of each alone) across a concentration gradient. Single drug ED50 values were first determined and from those values combination analysis were prepared by 3-fold serial dilutions in 8 steps for all compounds. Combinations were tested using fixed concentration ratios. […] All compound concentrations and combinations were tested in duplicate. Cell culture and cell viability assays were performed as described.
# PANC-1 xenograft = PANC-1 xenograft model, alone and with gemcitabine; assay type: in vivo, C.B-17/IcrHsd-Prkdc scid Lyst bg mice; conditions: gemcitabine alone 60 mg/kg i.p. q3dx5
# Procedure: A disease model of pancreatic cancer was established by implanting 5×10^6 PANC-1 cells in 100 μL DMEM into the left flank of 7 week old female C.B-17/IcrHsd-Prkdc^scidLyst^bg mice. Mice were then treated with M53-PEG24-CEN09-106 with a drug loading of 8 and/or gemcitabine when the tumor size in groups of 3 animals averaged ˜500 mm^3. Treatments consisted of either vehicle control, M53-PEG24-CEN09-106 at 0.2, 1 and 5 mg/kg, with and without 60 mg/kg gemcitabine or 60 mg/kg gemcitabine alone and consisted of multiple injections using the M53-PEG24-CEN09-106 schedule of one injection every 7 days for 3 injections (q7d×3) administered i.v. and the gemcitabine schedule of one injection every 3 days for 5 injections (q3d×5) administered i.p. Tumor volumes were measured for each group using calibrated vernier calipers and plotted against first day of tumor implant for 28 days post-initial dose, graphed and shown in FIG. 6.
# A549 xenograft = A549 xenograft model (cell implant); assay type: in vivo, Hsd:Athymic Nude-Foxn1nu mice; conditions: controls: paclitaxel 15 mg/kg q2dx5; control conjugate (loading 7) 10 mg/kg i.v. q7dx3; A549 xenograft
# Procedure: Briefly, to establish a non-small-cell lung cancer disease model, 6×10^6 A549 cells in 200 μL, RPMI1640+50% Matrigel HC (BD Biosciences, San Jose, Calif.) were implanted into the left flank of Hsd:Athymic Nude-Foxn1^nu mice (Harlan, Indianapolis, Ind.). Therapy with antibody-drug conjugates was then initiated when the tumor volume in groups of 5 animals averaged ˜300 mm^3. Treatment using vehicle control, 0.1 and 1 mg/kg M53-PEG24-CEN09-106, and 10 mg/kg control M53-PEG24-CEN09-106 (a control conjugate with a drug loading of 7 drugs per antibody where the antibody's target is not on the cell surface but drug and linker and antibody isotype are the same as M53-PEG24-CEN09-106) were all administered i.v. using the schedule of one injection every 7 days with 3 total injected doses (q7d×3). 15 mg/kg paclitaxel dosed at q2d×5 served as a positive control treatment group. Using this schedule, tumor volumes were measured for each group using calibrated vernier calipers and plotted against first day of tumor implant for 54 days post-implant and 40 days post-initial dose, to produce the graph shown in FIG. 3.
# A549 xenografts = experiment: Second A549 xenograft study (tumor fragments); assay type: in vivo, female HRLN nu/nu mice; conditions: for growth inhibition of the tumor compared to vehicle: 100 days post-initial dose, EDC (loading 3) 5 mg/kg i.p. q3dx4, scillarenin aminoxyloside 20 mg/kg q2dx5, paclitaxel 15 mg/kg q1dx5; for weight loss: same dosing as efficacy arms, second A549 xenograft study
# Procedure: Briefly, to establish a non-small-cell lung cancer disease model, subcutaneous A549 xenografts were initiated in female HRLN nu/nu mice by implanting 8 mm^3 A549 tumor fragments subcutaneously into the left flank. Tumor growth was monitored, and mice bearing tumors of 60-180 mm^3 were selected for the study. Tumor-bearing mice (n=7 mice/group) with a group average tumor volume of approximately 110 mm^3 were treated i.p. with 5 mgs/kg M53-PEG24-CEN09-106 at q3d×4, 20 mg/kg scillarenin-4-amino-deoxy-L-xylopryanoside (an intermediate in the construction of M53-PEG24-CEN09-106 and known cytotoxin) at q2dx5, and 15 mg/kg paclitaxel at q1d×5. Tumor volumes were measured for each group using calibrated vernier calipers plotted against day of first dose for 100 days to produce the graph shown in FIG. 4.
# Paclitaxel at its optimum dosing produced 80% growth inhibition of the tumor when compared to vehicle.
# H460 xenograft = H460 xenograft model; assay type: in vivo, Hsd:Athymic Nude-Foxn1nu mice; conditions: H460 xenograft
# Procedure: Briefly, to establish a large-cell lung cancer disease model, 1×10^6 H-460 cells in 100 μL RPMI1640+30% Matrigel HC (BD Biosciences, San Jose, Calif.) were implanted into the left flank of Hsd:Athymic Nude-Foxn1^nu mice (Harlan, Indianapolis, Ind.). Therapy was initiated when the tumor size in groups of 5 animals averaged ˜200 mm^3. Treatment using vehicle control, M53-PEG24-CEN09-106 at 0.1 and 1 mg/kg, and 10 mg/kg control M53-PEG24-CEN09-106 (as described above) consisted of multiple i.v. injections using the schedule of one injection every 7 days for 2 injections (q7d×2). Paclitaxel served as a positive control treatment group and was dosed i.v. at 15 mg/kg using the schedule of one injection every 2 days for 5 injections (q2d×5). Using this schedule, tumor volumes were measured for each group using calibrated vernier calipers and plotted against day of tumor implant for 24 days post-implant and 12 days post-initial dose, graphed and shown in FIG. 5.
# human dysadherin [2] = target: T1, human dysadherin; experiment: cell-based or functional assay
# human dysadherin [3] = target: T1, human dysadherin; experiment: cell-based or functional assay
# NSCLC cell line A549 [4] = experiment: In vitro activity of chimeric and scFv conjugates against A549; conditions: A549 cells; scFv conjugates
# Procedure: Cells were incubated with the agent/conjugate for 3 days before cell viability testing. Cell viability testing used the CellTiter-Glo luminescent cell viability assay (Promega, Madison, Wis.).
molecule,measurement,setting,value
CO[C@H]1C[C@@H]2CC[C@@H](C)[C@@](O)(O2)C(=O)C(=O)N2CCCC[C@H]2C(=O)O[C@H]([C@H](C)C[C@@H]2CC[C@@H](OCCO)[C@H](OC)C2)CC(=O)[C@H](C)/C=C(\C)[C@@H](O)[C@@H](OC)C(=O)[C@H](C)C[C@H](C)/C=C/C=C/C=C/1C [Everolimus],EC50,"NSCLC cell line A549 [1]; drug alone, A549 cells, read-out: EC50",11 nM
"Nc1ccn([C@@H]2O[C@H](CO)[C@@H](O)C2(F)F)c(=O)n1 [Gemcitabine, reference compound]",growth inhibition of the tumor compared to vehicle,PANC-1 xenograft,68%
CCN(CC)CCCCNc1ncc2cc(-c3cc(OC)cc(OC)c3)c(NC(=O)NC(C)(C)C)nc2n1 [PD 0173074],EC50,NSCLC cell line A549 [1]; A549,29000 nM
"CC(=O)O[C@H]1C(=O)[C@@]2(C)[C@H]([C@H](OC(=O)c3ccccc3)[C@]3(O)C[C@H](OC(=O)[C@H](O)[C@@H](NC(=O)c4ccccc4)c4ccccc4)C(C)=C1C3(C)C)[C@]1(OC(C)=O)CO[C@@H]1C[C@@H]2O [Paclitaxel, reference compound]",growth inhibition of the tumor compared to vehicle,A549 xenograft,45%
same,growth inhibition of the tumor compared to vehicle,A549 xenografts,80%
same,weight loss,A549 xenografts,11%
same,weight loss,"H460 xenograft; EDC 0.1 mg/kg q7dx2, paclitaxel 15 mg/kg q2dx5",15%
same,growth inhibition of the tumor compared to vehicle,"H460 xenograft; controls: paclitaxel 15 mg/kg i.v. q2dx5, control conjugate 10 mg/kg i.v. q7dx2",78%
C[C@]12CC[C@H](OC3OC[C@H](N)[C@@H](O)[C@@H]3O)C=C1CCC1C2CC[C@]2(C)[C@@H](c3ccc(=O)oc3)CC[C@]12O (stereo partly drawn) [Scillarenin-4-amino-4-deoxy-L-xylopyranoside],growth inhibition of the tumor compared to vehicle,A549 xenografts,60%
same,weight loss,A549 xenografts,8%
"M53-PEG24-CEN10-110 (antibody, V domains shown, PEG24-CEN10-110 on reduced cysteine thiols; positions not given; PEG24-CEN10-110 (scillarenin linker-drug with lysine in the linker) on reduced cysteine thiols; positions not given) VH: EVQLVESGGGLVQPKGTLKLSCAASGFSFNTHAMNWVRQAPGKSLEWVARTMSKSNNYATYYADSVKDRFIIRADDSQSMLYLQMNNLKTEDTAMYYCVRDDPKRGMDYWGQGTSVTVSS VL: GIVMSQSPSSLAVSVGEKVTMSCKPSQSLLYSRNQKIYLAWYQQKPGQSPKLLIYWASTRESGVPDRFTGSGSGTDFTLIISSVRAEDLAVYYCQQYYNYPLTFGAGTKLELKR","EC50, cytotoxicity (CellTiter-Glo cell viability), A375 cells",human dysadherin [2],0.5 nM
same,"EC50, cytotoxicity (CellTiter-Glo cell viability), A549 cells",human dysadherin [2],0.1 nM
same,"EC50, cytotoxicity (CellTiter-Glo cell viability), H460 cells",human dysadherin [2],0.2 nM
"M53-PEG24-CEN-319 (antibody, V domains shown, PEG24-CEN-319 on reduced cysteine thiols; positions not given; PEG24-CEN-319 (digitoxigenin 4-amino-xyloside PEG24 maleimide linker-drug) on reduced cysteine thiols; positions not given) VH: EVQLVESGGGLVQPKGTLKLSCAASGFSFNTHAMNWVRQAPGKSLEWVARTMSKSNNYATYYADSVKDRFIIRADDSQSMLYLQMNNLKTEDTAMYYCVRDDPKRGMDYWGQGTSVTVSS VL: GIVMSQSPSSLAVSVGEKVTMSCKPSQSLLYSRNQKIYLAWYQQKPGQSPKLLIYWASTRESGVPDRFTGSGSGTDFTLIISSVRAEDLAVYYCQQYYNYPLTFGAGTKLELKR","EC50, cytotoxicity (CellTiter-Glo cell viability), A549 cells",human dysadherin [2],1.6 nM
same,"EC50, cytotoxicity (CellTiter-Glo cell viability), H929 cells",human dysadherin [2],> 200 nM
same,"EC50, cytotoxicity (CellTiter-Glo cell viability), PANC cells",human dysadherin [2],> 200 nM
"M53-PEG24-CEN09-107 (antibody, V domains shown, PEG24-CEN09-107 on reduced cysteine thiols; positions not given; PEG24-CEN09-107 (scillarenin 4-amino-riboside PEG24 maleimide linker-drug) on reduced cysteine thiols; positions not given) VH: EVQLVESGGGLVQPKGTLKLSCAASGFSFNTHAMNWVRQAPGKSLEWVARTMSKSNNYATYYADSVKDRFIIRADDSQSMLYLQMNNLKTEDTAMYYCVRDDPKRGMDYWGQGTSVTVSS VL: GIVMSQSPSSLAVSVGEKVTMSCKPSQSLLYSRNQKIYLAWYQQKPGQSPKLLIYWASTRESGVPDRFTGSGSGTDFTLIISSVRAEDLAVYYCQQYYNYPLTFGAGTKLELKR","EC50, cytotoxicity (CellTiter-Glo cell viability), A375 cells",human dysadherin [2],2.6 nM
same,"EC50, cytotoxicity (CellTiter-Glo cell viability), A549 cells",human dysadherin [2],0.5 nM
"cM53-PEG24-CEN09-106 (antibody, human IgG1, kappa, V domains shown, PEG24-CEN09-106 on cysteine thiols; positions not stated (cysteine in place of valine at position 2 of SEQ ID NO: 23)) VH: ECQLVESGGGLVQPKGTLKLSCAASGFSFNTHAMNWVRQAPGKSLEWVARTMSKSNNYATYYADSVKDRFIISRDDSQSMLYLQMNNLKTEDTAMYYCVRDDPKRGMDYWGQGTSVTVSS VL: GIVMSQSPSSLAVSVGEKVTMSCKPSQSLLYSRNQKIYLAWYQQKPGQSPKLLIYWASTRESGVPDRFTGSGSGTDFTLIISSVRAEDLAVYYCQQYYNYPLTFGAGTKLELKR","EC50, in vitro activity against A549 cells",human dysadherin [3],2 nM
"scFv-PEG24-CEN09-106 (scFv, PEG24-CEN09-106 (scillarenin linker-drug) on the unpaired cysteine (position 23 of SEQ ID NO: 30)) scFv: ECQLVESGGGLVQPKGTLKLSCAASGFSFNTHAMNWVRQAPGKSLEWVARTMSKSNNYATYYADSVKDRFIISRDDSQSMLYLQMNNLKTEDTAMYYCVRDDPKRGMDYWGQGTSVTVSSGGGGSGGGGSGGGGSGIVMSQSPSSLAVSVGEKVTMSCKPSQSLLYSRNQKIYLAWYQQKPGQSPKLLIYWASTRESGVPDRFTGSGSGTDFTLIISSVRAEDLAVYYCQQYYNYPLTFGAGTKLELK","EC50, in vitro activity against A549 cells",human dysadherin [3],1.6 nM
"scFv-PEG36-CEN09-016: scFv conjugate with PEG36 linker, 1 drug per scFv (conjugate) scFv: ECQLVESGGGLVQPKGTLKLSCAASGFSFNTHAMNWVRQAPGKSLEWVARTMSKSNNYATYYADSVKDRFIISRDDSQSMLYLQMNNLKTEDTAMYYCVRDDPKRGMDYWGQGTSVTVSSGGGGSGGGGSGGGGSGIVMSQSPSSLAVSVGEKVTMSCKPSQSLLYSRNQKIYLAWYQQKPGQSPKLLIYWASTRESGVPDRFTGSGSGTDFTLIISSVRAEDLAVYYCQQYYNYPLTFGAGTKLELK",EC50,NSCLC cell line A549 [4],1.1 nM
"scFv-PEG12-CEN09-016: scFv conjugate with PEG12 linker, 1 drug per scFv (conjugate) scFv: ECQLVESGGGLVQPKGTLKLSCAASGFSFNTHAMNWVRQAPGKSLEWVARTMSKSNNYATYYADSVKDRFIISRDDSQSMLYLQMNNLKTEDTAMYYCVRDDPKRGMDYWGQGTSVTVSSGGGGSGGGGSGGGGSGIVMSQSPSSLAVSVGEKVTMSCKPSQSLLYSRNQKIYLAWYQQKPGQSPKLLIYWASTRESGVPDRFTGSGSGTDFTLIISSVRAEDLAVYYCQQYYNYPLTFGAGTKLELK",EC50,NSCLC cell line A549 [4],9.1 nM

# Source: patent US20140079722A1, “EXTRACELLULAR TARGETED DRUG CONJUGATES” (CENTROSE, LLC, priority 2011, published 2014)
